Values quoted from earlier work, collected in patent US7833964B2, “Methods of reducing visceral fat by increasing levels of insulin-like growth factor-I (IGF-I)” (Tercica, Inc., priority 2003, dated 2010).

Key:
[1] = tested on: Type I IGF receptor of rat and mouse cells; conditions: relative to IGF-I; cited from earlier work
[2] = target: T1, placental insulin receptor (Homo sapiens, UniProt P06213); conditions: relative to the comparator named in the value; cited from earlier work
T1 construct: the placental insulin receptor; host or cells: placenta (endogenous receptor)

[3] = target: T2, human placental Type I IGF receptor (Homo sapiens, UniProt P08069); conditions: relative to the comparator named in the value; cited from earlier work
T2 construct: the human placental Type I IGF receptor; host or cells: human placenta (endogenous receptor)

[4] = tested on: Type 2 IGF receptor; conditions: relative to human IGF-I; cited from earlier work

Substance	affinity to the Type I IGF receptor of rat and mouse cells [1]	affinity to the insulin receptor [2]	affinity to the Type I IGF receptor [3]	affinity to the Type 2 IGF receptor [4]
(Leu^24)IGF-I: functional mutant of IGF-I described in Cascieri et al. 1988	lower affinity than IGF-I	lower affinity than IGF-I	lower affinity than IGF-I	–
(Phe^23, Phe^24, Tyr^25)IGF-I: functional mutant of IGF-I described in Cascieri et al. 1988	–	equipotent to human IGF-I	equipotent to human IGF-I	equipotent to human IGF-I
(Ser^24)IGF-I: functional mutant of IGF-I described in Cascieri et al. 1988	lower affinity than IGF-I	lower affinity than IGF-I	lower affinity than IGF-I	–
